# Patent publication US20240392002A1 (EXELIXIS, published 2024)
# Assays:
# [1] = biological target: T1, extracellular domain of human ROR2 (human, UniProt Q01974 34-403); test: BLI, IgG1 on biosensor, soluble ROR ectodomain
# T1 construct: bought protein; biotinylated in the bivalent assay format; also called Acro Cat. No. RO2-H52E5
# Excerpt: (§1) To measure binding affinity in ROR binder discovery campaigns, the VL and VH domains identified in the phage screen described above were formatted into a bivalent monospecific native human full-length IgG1 architecture and immobilized to a biosensor on an Octet (Pall ForteBio) biolayer interferometer. Soluble ROR antigens, including the extracellular domains of ROR1 (Acro Cat. No. RO1-H522γ) and ROR2 (Acro Cat. No. R02-H52E5), as well as the individual ROR1 Frizzled (Acro Cat. No. RO1-H5222), Ig-like (Acro Cat. No. RO1-H5221), and Kringle (Acro Cat. No. RO1-H5223) domains, were then added to the system and binding measured.
# (§2) ROR binding candidates, formatted in the bivalent monospecific native human full-length IgG1 architecture, were further characterized for binding to ROR1 and/or ROR2. […] ROR binding candidates were also characterized for their binding to specific ROR1 domains.
# [2] = biological target: T2, extracellular domain of human ROR1 (human, UniProt Q01973 30-406); test: BLI, IgG1 on biosensor, soluble ROR ectodomain
# T2 construct: bought protein; biotinylated in the bivalent assay format; also called Acro Cat. No. RO1-H522y
# T2 sequence (Q01973 30-406 limits assumed): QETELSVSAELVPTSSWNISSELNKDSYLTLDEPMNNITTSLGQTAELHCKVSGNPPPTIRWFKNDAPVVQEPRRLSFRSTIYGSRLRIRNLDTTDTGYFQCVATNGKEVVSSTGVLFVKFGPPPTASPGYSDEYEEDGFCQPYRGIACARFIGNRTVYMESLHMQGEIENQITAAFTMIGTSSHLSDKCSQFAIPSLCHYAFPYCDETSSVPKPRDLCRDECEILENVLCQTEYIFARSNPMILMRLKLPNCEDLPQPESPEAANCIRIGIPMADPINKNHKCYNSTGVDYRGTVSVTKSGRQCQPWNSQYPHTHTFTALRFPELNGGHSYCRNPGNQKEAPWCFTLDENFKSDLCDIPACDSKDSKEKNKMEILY
# Excerpt: as §1, §2
# [3] = biological target: T3, ROR1 Ig-like domain (human, UniProt Q01973 42-147); test: BLI, IgG1 on biosensor, soluble ROR1 domain
# T3 construct: also called Acro Cat. No. RO1-H5221
# T3 sequence (Q01973 42-147): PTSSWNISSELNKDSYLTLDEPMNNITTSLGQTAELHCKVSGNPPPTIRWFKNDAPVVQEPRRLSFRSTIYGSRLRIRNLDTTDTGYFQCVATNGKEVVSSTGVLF
# Excerpt: as §1, §2
# T1 sequence (Q01974 34-403 limits assumed): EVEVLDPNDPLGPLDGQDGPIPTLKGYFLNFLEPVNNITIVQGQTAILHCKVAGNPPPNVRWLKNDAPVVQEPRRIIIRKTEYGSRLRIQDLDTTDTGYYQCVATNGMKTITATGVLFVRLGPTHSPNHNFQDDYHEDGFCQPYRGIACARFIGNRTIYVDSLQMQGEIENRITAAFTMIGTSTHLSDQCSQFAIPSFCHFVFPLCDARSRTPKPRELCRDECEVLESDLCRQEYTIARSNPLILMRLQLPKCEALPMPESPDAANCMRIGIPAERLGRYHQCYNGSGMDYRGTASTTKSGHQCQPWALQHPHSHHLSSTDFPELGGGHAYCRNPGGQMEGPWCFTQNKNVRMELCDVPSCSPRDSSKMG
Binder,binding result [1],binding result [2],binding result [3]
"I2C-15 IgG1 (antibody, V domains shown, human IgG1) VH: EVQLVESGGGLVQPGGSLRLSCAASGFTFSSYFIHWVRQAPGKGLEWVALIYPDTDDTYYADSVKGRFTISADTSKNTAYLQMNSLRAEDTAVYYCARYGYLGVGAFDYWGQGTLVTVSS VL: DIQMTQSPSSLSASVGDRVTITCRASQSVSSAVAWYQQKPGKAPKLLIYSASSLYSGVPSRFSGSRSGTDFTLTISSLQPEDFATYYCQQLYWTPGTFGQGTKVEIK",binds,binds,binds
"I2A-16 IgG1 (antibody, V domains shown, human IgG1) VH: EVQLVESGGGLVQPGGSLRLSCAASGFTFSGYFIHWVRQAPGKGLEWVAAIFPYRGGTSYADSVKGRFTISADTSKNTAYLQMNSLRAEDTAVYYCARGGVSPGGFDYWGQGTLVTVSS VL: DIQMTQSPSSLSASVGDRVTITCRASQSVSSAVAWYQQKPGKAPKLLIYSASSLYSGVPSRFSGSRSGTDFTLTISSLQPEDFATYYCQQYYLYPGTFGQGTKVEIK",binds,binds,binds
"I2A-1 IgG1 (antibody, V domains shown, human IgG1) VH: EVQLVESGGGLVQPGGSLRLSCAASGFTFSSYFIHWVRQAPGKGLEWVAAIYPEGGYTYYADSVKGRFTISADTSKNTAYLQMNSLRAEDTAVYYCARDYKYVGALDYWGQGTLVTVSS VL: DIQMTQSPSSLSASVGDRVTITCRASQSVSSAVAWYQQKPGKAPKLLIYSASSLYSGVPSRFSGSRSGTDFTLTISSLQPEDFATYYCQQYYYFPGTFGQGTKVEIK",binds,binds,binds
"I2C-12 IgG1 (antibody, V domains shown, human IgG1) VH: EVQLVESGGGLVQPGGSLRLSCAASGFTFSSYFIHWVRQAPGKGLEWVAAIHPAFSFTYYADSVKGRFTISADTSKNTAYLQMNSLRAEDTAVYYCARPRLSSAVVLDYWGQGTLVTVSS VL: DIQMTQSPSSLSASVGDRVTITCRASQSVSSAVAWYQQKPGKAPKLLIYSASSLYSGVPSRFSGSRSGTDFTLTISSLQPEDFATYYCQQGYYFPGTFGQGTKVEIK",binds,binds,binds
"I2A-14 IgG1 (antibody, V domains shown, human IgG1) VH: EVQLVESGGGLVQPGGSLRLSCAASGFTFDSYVIHWVRQAPGKGLEWVAYIFSFGGYTYYADSVKGRFTISADTSKNTAYLQMNSLRAEDTAVYYCARSPYGTFALDYWGQGTLVTVSS VL: DIQMTQSPSSLSASVGDRVTITCRASQSVSSAVAWYQQKPGKAPKLLIYSASSLYSGVPSRFSGSRSGTDFTLTISSLQPEDFATYYCQQYYYTPGTFGQGTKVEIK",binds,binds,binds
"I2C-24 IgG1 (antibody, V domains shown, human IgG1) VH: EVQLVESGGGLVQPGGSLRLSCAASGFTFSRYYIHWVRQAPGKGLEWVADIDSYGGFTYYADSVKGRFTISADTSKNTAYLQMNSLRAEDTAVYYCARAHRFLQGGYVLDYWGQGTLVTVSS VL: DIQMTQSPSSLSASVGDRVTITCRASQSVSSAVAWYQQKPGKAPKLLIYSASSLYSGVPSRFSGSRSGTDFTLTISSLQPEDFATYYCQQYSWGLWTFGQGTKVEIK",binds,binds,binds
"I2C-17 IgG1 (antibody, V domains shown, human IgG1) VH: EVQLVESGGGLVQPGGSLRLSCAASGFTFSDYFIHWVRQAPGKGLEWVAYIYPASGGTCYADSVKGRFTISADTSKNTAYLQMNSLRAEDTAVYYCARGYIPHMAALDYWGQGTLVTVSS VL: DIQMTQSPSSLSASVGDRVTITCRASQSVSSAVAWYQQKPGKAPKLLIYSASSLYSGVPSRFSGSRSGTDFTLTISSLQPEDFATYYCQQYYWWPGTFGQGTKVEIK",binds,binds,binds
"I2A-22 IgG1 (antibody, V domains shown, human IgG1) VH: EVQLVESGGGLVQPGGSLRLSCAASGFTFSSYFIHWVRQAPGKGLEWVAAIYPSGWYTSYADSVKGRFTISADTSKNTAYLQMNSLRAEDTAVYYCARVQAGVFDYWGQGTLVTVSS VL: DIQMTQSPSSLSASVGDRVTITCRASQSVSSAVAWYQQKPGKAPKLLIYSASSLYSGVPSRFSGSRSGTDFTLTISSLQPEDFATYYCQQYYYYPGTFGQGTKVEIK",binds,binds,binds
"I2C-11 IgG1 (antibody, V domains shown, human IgG1) VH: EVQLVESGGGLVQPGGSLRLSCAASGFTFGSYFIHWVRQAPGKGLEWVAAIFPAGGYTYYADSVKGRFTISADTSKNTAYLQMNSLRAEDTAVYYCARYGSMGGAFDYWGQGTLVTVSS VL: DIQMTQSPSSLSASVGDRVTITCRASQSVSSAVAWYQQKPGKAPKLLIYSASSLYSGVPSRFSGSRSGTDFTLTISSLQPEDFATYYCQQYYWFPGTFGQGTKVEIK",binds,binds,binds
"I2C-1 IgG1 (antibody, V domains shown, human IgG1) VH: EVQLVESGGGLVQPGGSLRLSCAASGFTFTSYGIHWVRQAPGKGLEWVAAIYPHSGFTSYADSVKGRFTISADTSKNTAYLQMNSLRAEDTAVYYCARTSYRGFDYWGQGTLVTVSS VL: DIQMTQSPSSLSASVGDRVTITCRASQSVSSAVAWYQQKPGKAPKLLIYSASSLYSGVPSRFSGSRSGTDFTLTISSLQPEDFATYYCQQYYWYPGTFGQGTKVEIK",binds,binds,binds

# Next, values leading:
binding result [1],binding result [2],binding result [3],Binder
no binding,binds,binds,"I2A-3 IgG1 (antibody, V domains shown, human IgG1) VH: EVQLVESGGGLVQPGGSLRLSCAASGFTFTSYEIHWVRQAPGKGLEWVAHIDPYGGYTQYADSVKGRFTISADTSKNTAYLQMNSLRAEDTAVYYCARRGVAVFDYWGQGTLVTVSS VL: DIQMTQSPSSLSASVGDRVTITCRASQSVSSAVAWYQQKPGKAPKLLIYSASSLYSGVPSRFSGSRSGTDFTLTISSLQPEDFATYYCQQWAYAPVTFGQGTKVEIK"
no binding,binds,binds,"I2A-20 IgG1 (antibody, V domains shown, human IgG1) VH: EVQLVESGGGLVQPGGSLRLSCAASGFTFSDYGIHWVRQAPGKGLEWVAEIDSWLGYTYYADSVKGRFTISADTSKNTAYLQMNSLRAEDTAVYYCARSPYHYLYYGLDYWGQGTLVTVSS VL: DIQMTQSPSSLSASVGDRVTITCRASQSVSSAVAWYQQKPGKAPKLLIYSASSLYSGVPSRFSGSRSGTDFTLTISSLQPEDFATYYCQQLSSSLGTFGQGTKVEIK"
no binding,binds,binds,"I2A-4 IgG1 (antibody, V domains shown, human IgG1) VH: EVQLVESGGGLVQPGGSLRLSCAASGFTFYSYDIHWVRQAPGKGLEWVAYISPYWGITTYADSVKGRFTISADTSKNTAYLQMNSLRAEDTAVYYCARYIGSSYWDALDYWGQGTLVTVSS VL: DIQMTQSPSSLSASVGDRVTITCRASQSVSSAVAWYQQKPGKAPKLLIYSASSLYSGVPSRFSGSRSGTDFTLTISSLQPEDFATYYCQQSDSSLVTFGQGTKVEIK"
binds,binds,binds,"I2C-16 IgG1 (antibody, V domains shown, human IgG1) VH: EVQLVESGGGLVQPGGSLRLSCAASGFTFSSYWIHWVRQAPGKGLEWVAAIHPSGSYTYYADSVKGRFTISADTSKNTAYLQMNSLRAEDTAVYYCARVGLLVTSVMDYWGQGTLVTVSS VL: DIQMTQSPSSLSASVGDRVTITCRASQSVSSAVAWYQQKPGKAPKLLIYSASSLYSGVPSRFSGSRSGTDFTLTISSLQPEDFATYYCQQYYYFPGTFGQGTKVEIK"
